Measurements reported in patent publication US20120207760A1.

Experiments:
Settings in all cases: remark: other sources report otherwise
[1] = biological target: recombinant soluble homotrimeric HA of A/Wisconsin/67/05 (H3N2) (Influenza A virus A/Wisconsin/67/05 (H3N2)); assay: microarray, BCC supernatant IgG, trimeric HA
[2] = biological target: recombinant soluble homotrimeric HA of A/Vietnam/1203/04 (H5N1) (Influenza A virus A/Vietnam/1203/04 (H5N1)); assay: microarray, BCC supernatant IgG, trimeric HA
[3] = biological target: recombinant soluble homotrimeric HA of A/swine/Ontario/01911-2/99 (H4N6) (Influenza A virus A/swine/Ontario/01911-2/99 (H4N6)); assay: microarray, BCC supernatant IgG, trimeric HA
[4] = biological target: recombinant soluble homotrimeric HA of A/Anhui/1/05 (H5N1) (Influenza A virus A/Anhui/1/05 (H5N1)); assay: microarray, BCC supernatant IgG, trimeric HA
[5] = biological target: recombinant soluble homotrimeric HA of A/Solomon Islands/3/06 (H1N1) (Influenza A virus A/Solomon Islands/3/06 (H1N1)); assay: microarray, BCC supernatant IgG, trimeric HA
[6] = biological target: recombinant soluble homotrimeric HA of A/duck/Yangzhou/02/05 (H8N4) (Influenza A virus A/duck/Yangzhou/02/2005 (H8N4)); assay: microarray, BCC supernatant IgG, trimeric HA
[7] = biological target: recombinant soluble homotrimeric HA of A/chicken/Vietnam/NCVD-016/08 (H5N1) (Influenza A virus A/chicken/Vietnam/NCVD-016/08 (H5N1)); assay: microarray, BCC supernatant IgG, trimeric HA
[8] = biological target: recombinant soluble homotrimeric HA of A/northern shoveler/California/HKWF115/07 (Influenza A virus A/northern shoveler/California/HKWF115/2007); assay: microarray, BCC supernatant IgG, trimeric HA
[9] = biological target: recombinant soluble homotrimeric HA of A/Japan/305/57 (H2N2) (Influenza A virus A/Japan/305/57 (H2N2)); assay: microarray, BCC supernatant IgG, trimeric HA
[10] = biological target: recombinant soluble homotrimeric HA of A/Egypt/3300-NAMRU3/08 (H5N1) (Influenza A virus A/Egypt/3300-NAMRU3/08 (H5N1)); assay: microarray, BCC supernatant IgG, trimeric HA
[11] = biological target: recombinant soluble homotrimeric HA of A/Indonesia/5/05 (H5N1) (Influenza A virus A/Indonesia/5/05 (H5N1)); assay: microarray, BCC supernatant IgG, trimeric HA
[12] = biological target: recombinant soluble homotrimeric HA of A/California/4/09 (H1N1) (Influenza A virus A/California/4/09 (H1N1)); assay: microarray, BCC supernatant IgG, trimeric HA
[13] = biological target: recombinant soluble homotrimeric HA of A/Hong Kong/2108/03 (H9N2) (Influenza A virus A/Hong Kong/2108/03 (H9N2)); assay: microarray, BCC supernatant IgG, trimeric HA
[14] = biological target: T1, recombinant homotrimeric HA, A/Vietnam/1203/04 H5N1 (Influenza A virus A/Vietnam/1203/04 (H5N1)); assay: trimeric HA microarray, transfection set 3
[15] = biological target: recombinant homotrimeric HA, A/northern shoveler/California/HKWF115/07 (Influenza A virus A/northern shoveler/California/HKWF115/2007 (H6N1)); assay: trimeric HA microarray, transfection set 3
[16] = biological target: T2, recombinant homotrimeric HA, A/Solomon Islands/3/06 H1N1 (Influenza A virus A/Solomon Islands/3/06 (H1N1)); assay: trimeric HA microarray, transfection set 3
[17] = biological target: recombinant homotrimeric HA, A/Egypt/3300-NAMRU3/08 H5N1 (Influenza A virus A/Egypt/3300-NAMRU3/08 (H5N1)); assay: trimeric HA microarray, transfection set 3
[18] = biological target: recombinant homotrimeric HA, A/swine/Ontario/01911-2/99 H4N6 (Influenza A virus A/swine/Ontario/01911-2/99 (H4N6)); assay: trimeric HA microarray, transfection set 3
[19] = biological target: recombinant homotrimeric HA, A/Hong Kong/1073/99 H9N2 (Influenza A virus A/Hong Kong/1073/99 (H9N2)); assay: trimeric HA microarray, transfection set 3
[20] = biological target: recombinant homotrimeric HA, A/chicken/Vietnam/NCVD-016/08 H5N1 (Influenza A virus A/chicken/Vietnam/NCVD-016/08 (H5N1)); assay: trimeric HA microarray, transfection set 3
[21] = biological target: T3, recombinant homotrimeric HA, A/Indonesia/5/05 H5N1 (Influenza A virus A/Indonesia/5/05 (H5N1)); assay: trimeric HA microarray, transfection set 3
[22] = biological target: T4, recombinant homotrimeric HA, A/Japan/305/57 H2N2 (Influenza A virus A/Japan/305/57 (H2N2)); assay: trimeric HA microarray, transfection set 3
[23] = biological target: T5, recombinant homotrimeric HA, A/California/4/09 H1N1 (Influenza A virus A/California/4/09 (H1N1)); assay: trimeric HA microarray, transfection set 3
[24] = biological target: T6, recombinant homotrimeric HA, A/Wisconsin/67/05 H3N2 (Influenza A virus A/Wisconsin/67/05 (H3N2)); assay: trimeric HA microarray, transfection set 3
[25] = biological target: recombinant homotrimeric HA, A/duck/Yangzhou/02/05 H8N4 (Influenza A virus A/duck/Yangzhou/02/2005 (H8N4)); assay: trimeric HA microarray, transfection set 3
[26] = biological target: recombinant homotrimeric HA, A/common magpie/Hong Kong/5052/07 H5N1 (Influenza A virus A/common magpie/Hong Kong/5052/07 (H5N1)); assay: trimeric HA microarray, transfection set 3
[27] = biological target: T7, recombinant homotrimeric HA, A/South Carolina/1/18 H1N1 (Influenza A virus A/South Carolina/1/18 (H1N1)); assay: trimeric HA microarray, transfection set 3
[28] = biological target: recombinant homotrimeric HA, A/Hong Kong/2108/03 H9N2 (Influenza A virus A/Hong Kong/2108/03 (H9N2)); assay: trimeric HA microarray, transfection set 3
[29] = biological target: T2, recombinant homotrimeric HA, A/Solomon …; assay: trimeric HA microarray, transfection set 5
[30] = biological target: T3, recombinant homotrimeric HA, …; assay: trimeric HA microarray, transfection set 5
[31] = biological target: T4, recombinant homotrimeric HA, …; assay: trimeric HA microarray, transfection set 5
[32] = biological target: T5, recombinant homotrimeric HA, …; assay: trimeric HA microarray, transfection set 5
[33] = biological target: T6, recombinant homotrimeric HA, …; assay: trimeric HA microarray, transfection set 5
[34] = biological target: T7, recombinant homotrimeric HA, A/South …; assay: trimeric HA microarray, transfection set 5
[35] = biological target: recombinant soluble homotrimeric HA of A/Netherlands/219/03 (H7N7) (Influenza A virus A/Netherlands/219/03 (H7N7)); assay: microarray, BCC supernatant IgG, trimeric HA
[36] = biological target: T1, recombinant homotrimeric HA, …; assay: trimeric HA microarray, transfection set 5
[37] = biological target: hemagglutinin (HA) of influenza A/Japan/305/57 H2N2 (Influenza A virus A/Japan/305/1957 (H2N2)), P03451; assay: ELISA, inactivated whole virions coated; transfection supernatant set 5

B1: TCN-533 (5256_A17) (antibody, V domains shown)
VH: QVQLVQSGADVKKPGSSVTVSCKASGGSFSNYGINWVRQAPGQGLEWMGGIIPLINAPNYAPKFQGRVTITADMFSNIVSLQLTSLRTDDTAVYYCARRKMTTAIDYWGQGTLVTVSS
VL: QPVLSQPPSASASLGASVTLTCTLSSGFDNYQVAWYQQRPGKGPRFVMRVGNGGNVASKGDGIPDRFSVSGSGLNRYLTIKNIQEDDESDYYCGADHGSGNNFVSPYVFGGGTKLTVL
[1]
  Trimeric HA Binding: RLU: 13800 RLU
[2]
  Trimeric HA Binding: RLU: 5680 RLU
[3]
  Trimeric HA Binding: RLU: 1580 RLU
[4]
  Trimeric HA Binding: RLU: 8060 RLU
[5]
  Trimeric HA Binding: RLU: 39200 RLU
[6]
  Trimeric HA Binding: RLU: 24700 RLU
[7]
  Trimeric HA Binding: RLU: 47700 RLU
[8]
  Trimeric HA Binding: RLU: 41400 RLU
[9]
  Trimeric HA Binding: RLU: 10800 RLU
[10]
  Trimeric HA Binding: RLU: 34300 RLU
[11]
  Trimeric HA Binding: RLU: 44100 RLU
[12]
  Trimeric HA Binding: RLU: 29300 RLU
[13]
  Trimeric HA Binding: RLU: 172 RLU
[14]
  Trimeric HA Binding RLU: 11700 RLU
[15]
  Trimeric HA Binding RLU: 7810 RLU
[16]
  Trimeric HA Binding RLU: 15500 RLU
[17]
  Trimeric HA Binding RLU: 18600 RLU
[18]
  Trimeric HA Binding RLU: 180 RLU
[19]
  Trimeric HA Binding RLU: 23800 RLU
[20]
  Trimeric HA Binding RLU: 24600 RLU
[21]
  Trimeric HA Binding RLU: 28300 RLU
[22]
  Trimeric HA Binding RLU: 18600 RLU
[23]
  Trimeric HA Binding RLU: 6880 RLU
[24]
  Trimeric HA Binding RLU: 16100 RLU
[25]
  Trimeric HA Binding RLU: 711 RLU
[26]
  Trimeric HA Binding RLU: 25200 RLU
[27]
  Trimeric HA Binding RLU: 16400 RLU
[28]
  Trimeric HA Binding RLU: 33 RLU

B2: TCN-538 (3206_O17) (antibody, V domains shown)
VH: QITLKESGPTLVKPTQTLTLTCVFSGFSLSITGVRVGWIRQPPGKALEWLALISWDDEKHYSPSLQSRLTITKDTSKNQVVLTMTNLDPVDTATYYCARSTDRGHVLRYFGWMLPGDAFDVWGQGTMVTVSS
VL: DIVMTQSPDFLPVSLGERATINCKSSQRVLYSSNNKNYLAWYQLKPGQPPKLIIYWASTRESGVPDRFSGSGSGTEFTLTISSLQAEDVAVYYCQQYYSRPYTFGQGTKLEIK
[29]
  Trimeric HA Binding RLU: 1960 RLU
[30]
  Trimeric HA Binding RLU: 13700 RLU
[31]
  Trimeric HA Binding RLU: 6620 RLU
[32]
  Trimeric HA Binding RLU: 16000 RLU
[33]
  Trimeric HA Binding RLU: 2070 RLU
[34]
  Trimeric HA Binding RLU: 8430 RLU
[35]
  Trimeric HA Binding: RLU: 6530 RLU

B3: TCN-551 (5243_D01) (antibody, V domains shown)
VH: EVQLVQSGSEVKKPGESLKISCKGSGYSFSNYWIGWVRHMPGKGLEWMGIIYPGDSDTRYSPSFQGQVTMSADKSSSTVYLQWSSLKASDTAIYYCARRGGHSFGYGSGGDTHSEFDSWGQGTLVTVSS
VL: QSVLTQSPSVSAAPGQKVTISCSGSDSNIGDYFVCWYQHLPGKPPQLLIYENNKRPSGIPDRFSGSKSGTSATLGITGIQTGDEADYYCATWDGSLSAWVFGGGTKLTVL
[36]
  Trimeric HA Binding RLU: 41900 RLU
[29]
  Trimeric HA Binding RLU: 43500 RLU
[31]
  Trimeric HA Binding RLU: 25200 RLU
[32]
  Trimeric HA Binding RLU: 46100 RLU
[33]
  Trimeric HA Binding RLU: 936 RLU
[34]
  Trimeric HA Binding RLU: 4340 RLU
[37]
  OD450: 0.1 OD450
[7]
  Trimeric HA Binding: RLU: 42300 RLU
[8]
  Trimeric HA Binding: RLU: 52500 RLU
